Our source for the Kd values is publication PMC7886694.

pKd: −log10 of the molar value.

Data set [1] deals with His-GlnR (Mycobacterium smegmatis). The experiment in a line: BLI. To be noted: 37 C, 200 mM KCl, 2 mM Mg2+, BLI: 10 mM HEPES pH 8.0, 2 mM MgCl2, 0.1 mM EDTA, 10 ug/ml BSA, 0.02% Tween-20 (running buffer), EMSA: 2 ng biotin probe in 10 uL, Beyotime ….
A further data set relates to His-PrpR. The experiment in a line: BLI. The note with it: 37 C, 200 mM KCl, 2 mM Mg2+, BLI: 10 mM HEPES pH 8.0, 2 mM MgCl2, 0.1 mM EDTA, 10 ug/ml BSA, 0.02% Tween-20 (running buffer), EMSA: 2 ng biotin probe in 10 uL, Beyotime …. A general note: In EMSA bound probe runs differently from free probe, usually more slowly.

A word on the pKd: it is the negative decadic logarithm of the Kd, by convention in mol/L. Low readings indicate a high Kd, high ones a low Kd. With Picl (Msm icl promoter), the pKd in data set [1] is 7.47; in the data set on His-PrpR it was 6.77.
